US20250296994A1 (SYSMEX, published 2025)

Experiments:
[1] = biological target: T1, human Crtac1A (human, UniProt Q9NQ79 28-661); assay: immunoprecipitation from human CSF and serum, then immunoblotting (Wes)
T1 construct: Recombinant protein (IB control sample) or native protein in human CSF and serum; also called rCrtac1A
T1 sequence: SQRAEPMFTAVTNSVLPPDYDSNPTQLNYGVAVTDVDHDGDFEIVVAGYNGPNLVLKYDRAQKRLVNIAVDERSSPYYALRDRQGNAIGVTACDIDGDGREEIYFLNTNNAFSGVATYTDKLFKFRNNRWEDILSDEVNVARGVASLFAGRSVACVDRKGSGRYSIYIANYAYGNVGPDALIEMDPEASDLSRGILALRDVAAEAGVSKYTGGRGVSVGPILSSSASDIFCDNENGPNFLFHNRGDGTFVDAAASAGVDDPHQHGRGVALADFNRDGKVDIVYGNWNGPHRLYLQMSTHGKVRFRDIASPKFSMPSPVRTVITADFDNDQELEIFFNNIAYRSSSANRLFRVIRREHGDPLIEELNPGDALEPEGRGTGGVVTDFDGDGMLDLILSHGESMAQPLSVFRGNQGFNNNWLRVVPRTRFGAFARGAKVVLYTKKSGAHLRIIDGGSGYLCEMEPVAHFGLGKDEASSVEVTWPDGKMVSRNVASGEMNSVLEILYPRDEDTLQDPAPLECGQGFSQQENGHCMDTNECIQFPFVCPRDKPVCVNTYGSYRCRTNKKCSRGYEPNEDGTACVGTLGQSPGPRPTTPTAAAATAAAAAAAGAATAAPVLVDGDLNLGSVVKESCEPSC
Description: For human CSF and human serum, immunoprecipitation using a monoclonal antibody purified from the culture supernatant of hybridomas of clones 1B4 and 15C2 was performed, and IB analysis by Wes was performed. For comparison, immunoprecipitation (IP) using an anti-hCrtac1 antibody (RD) and IB analysis using an anti-rat LOTUS antibody (ITM, 45-12C) were performed.
As a sample, CSF (300 μL) and serum (500 μL) were used per antibody. Each sample and protein G sepharose were mixed and rotated at 4° C. for 1 hour to remove contaminants that non-specifically bind to protein G from each sample in advance. Protein G solid phase-treated magnetic particles (60 μL, Veritas, Dynabeads (registered trademark) Protein G) were dispensed into 1.5-mL tubes, and washed twice with dilution buffer III (500 μL, 0.02% Tween (registered trademark) 20/PBS (pH 7.4)). Magnetic collection was performed to remove the supernatant, and each antibody (24 μg) and the above dilution buffer III (200 μL) were added to the magnetic particles. The tube was stirred at room temperature for 1 hour, and then collected to remove the supernatant. The magnetic particles were washed five times with the above dilution buffer III (300 μL), and then collected to remove supernatant. Each sample from which impurities were removed was added to the magnetic particles, and the tube was stirred at room temperature for 5 hours. […]

[2] = biological target: T2, recombinant Crtac1B fragment #6 (human, UniProt Q9NQ79 28-606); assay: antigen immobilized ELISA, hybridoma culture supernatant, color development at 655 nm same as plate without antigen
T2 construct: also called fCrtac1B (1-607)
T2 sequence: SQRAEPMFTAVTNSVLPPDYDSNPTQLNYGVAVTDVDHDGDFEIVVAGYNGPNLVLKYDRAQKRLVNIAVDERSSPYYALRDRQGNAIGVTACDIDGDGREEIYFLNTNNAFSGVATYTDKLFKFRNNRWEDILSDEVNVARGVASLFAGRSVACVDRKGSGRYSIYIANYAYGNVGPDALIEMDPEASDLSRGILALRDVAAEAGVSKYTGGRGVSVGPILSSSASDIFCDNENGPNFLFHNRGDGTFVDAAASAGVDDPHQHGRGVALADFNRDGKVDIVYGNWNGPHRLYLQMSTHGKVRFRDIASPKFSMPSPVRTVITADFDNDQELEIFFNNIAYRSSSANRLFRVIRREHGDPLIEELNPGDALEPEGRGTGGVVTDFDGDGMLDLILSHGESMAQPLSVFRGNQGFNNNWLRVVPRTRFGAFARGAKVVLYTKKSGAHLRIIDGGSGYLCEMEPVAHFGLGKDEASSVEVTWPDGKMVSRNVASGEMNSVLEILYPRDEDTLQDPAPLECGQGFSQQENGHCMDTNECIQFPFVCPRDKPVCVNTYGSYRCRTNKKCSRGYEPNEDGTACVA
Description: (§1) A positive antigen (50 μL) and a negative control (50 μL) were added to each well of a 96 well plate, respectively. Then, the plate was incubated at 4° C. overnight, and the positive antigen and the negative control were immobilized in the well to obtain an antigen immobilized plate. Each well was washed twice with a washing solution (250 μL, 0.05% Tween (registered trademark) 20/20 mM potassium phosphate buffer (pH 7.4), 150 mM NaCl). To each well was added a blocking buffer (250 μL, 5% skim milk/20 mM potassium phosphate buffer (pH 7.4), 150 mM NaCl), and blocked at room temperature for 90 minutes. Culture supernatant (50 μL) of each hybridoma selected by primary screening was added to each well, and the cells were incubated at 37° C. for 1 hour. Each well was washed three times with a washing solution (250 μL). The HRP-labeled anti-mouse IgG antibody (MBL, product number 330) was diluted 1:1,000 with dilution buffer II (1% skim milk/20 mM potassium phosphate buffer (pH 7.4), 150 mM NaCl). A solution (50 μL) of this labeled antibody was added to each well, and the well was incubated at 37° C. for 1 hour. Each well was washed five times with a washing solution (250 μL). Chemical chromogenic substrate solutions (Bio-Rad, TMB Peroxidase EIA Substrate Kit) were added to respective wells at 50 μL, and the plate was allowed to stand at room temperature under shading for 30 minutes. The plate was set in a microplate reader (Thermo Fisher Scientific, Varioskan (registered trademark) Flash), and the color development intensity at 655 nm was measured for each well.
(§2) Reactivity of the monoclonal antibody contained in the culture supernatant of the hybridomas of clones 1B4 and 15C2 to the antigen was confirmed by ELISA using the 7 recombinant Crtac1B fragments described above. A specific operation was the same as that of the antigen immobilized ELISA method of Example 1. For comparison, ELISA was performed in the same manner using a 96 well plate in which no antigen was immobilized.
(§3) In addition, as to these monoclonal antibodies, the color development intensity when the recombinant Crtac1B fragments of #6 and #7 were used was substantially the same as that when a plate without immobilizing the antigen was used.

[3] = biological target: T3, recombinant Crtac1B fragment #7 (negative control) (human, UniProt Q9NQ79 28-606); assay: as above
T3 construct: also called fCrtac1B (1-606)
T3 sequence: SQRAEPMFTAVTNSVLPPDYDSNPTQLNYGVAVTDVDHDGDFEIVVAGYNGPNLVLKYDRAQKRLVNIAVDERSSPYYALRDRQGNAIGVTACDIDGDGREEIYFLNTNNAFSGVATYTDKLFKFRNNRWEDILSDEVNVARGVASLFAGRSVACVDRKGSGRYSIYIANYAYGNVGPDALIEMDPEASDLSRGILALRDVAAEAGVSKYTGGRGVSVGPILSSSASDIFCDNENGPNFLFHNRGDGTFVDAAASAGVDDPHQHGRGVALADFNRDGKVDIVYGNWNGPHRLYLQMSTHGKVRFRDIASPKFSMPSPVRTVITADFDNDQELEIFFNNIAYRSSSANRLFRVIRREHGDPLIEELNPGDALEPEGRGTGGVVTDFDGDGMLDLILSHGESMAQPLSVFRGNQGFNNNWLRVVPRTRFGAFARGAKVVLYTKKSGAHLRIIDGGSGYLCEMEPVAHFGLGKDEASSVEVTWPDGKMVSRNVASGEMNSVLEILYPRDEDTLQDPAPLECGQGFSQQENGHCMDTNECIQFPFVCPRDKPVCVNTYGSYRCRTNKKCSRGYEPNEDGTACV
Description: as §1, §2, §3

binding result [1]: no binding
binding result [2]: no binding
binding result [3]: no binding
B1: monoclonal antibody derived from the hybridoma of clone 1B4 (antibody, mouse IgG1, kappa, V domains shown)
VH: EVQLQQFGAELVKPGASVKISCKASGYTFTDYNMDWVKQSHGKSLEWIGDINPNYDSSSYNQKFKGKATLTVDKSSSTAYMELRSLTSEDTAVYYCTRSGGTYWGQGTLVTVSA
VL: DIQMNQSPSSLSASLGDTITITCHASQNINVWLSWYQQKPGNIPKLLIYKASNLHTGVPSRFSGSGSGTGFSLTISSLQPEDIATYYCQQAQSYPRTFGGGTKLEIKR
notes: It is kept apart because the two clones were tested separately; Mouse IgG1; Leader ranges were derived as for m1
